Laboratory results as given in paper PMC3953403, “Drosophila SNAP-29 Is an Essential SNARE That Binds Multiple Proteins Involved in Membrane Traffic” (PLoS ONE, 2014).

B1: dsyntaxin1, endogenous (natural protein, UniProt Q24547 1-291, looked up)
chain: MTKDRLAALHAAQSDDEEETEVAVNVDGHDSYMDDFFAQVEEIRGMIDKVQDNVEEVKKKHSAILSAPQTDEKTKQELEDLMADIKKNANRVRGKLKGIEQNIEQEEQQNKSSADLRIRKTQHSTLSRKFVEVMTEYNRTQTDYRERCKGRIQRQLEITGRPTNDDELEKMLEEGNSSVFTQGIIMETQQAKQTLADIEARHQDIMKLETSIKELHDMFMDMAMLVESQGEMIDRIEYHVEHAMDYVQTATQDTKKALKYQSKARRKKIMILICLTVLGILAASYVSSYFM
notes: Drosophila syntaxin 1, endogenous in S2 cells (pull-down) and in embryos (co-IP); also called dSyx1; source: endogenous, S2 cell lysate; endogenous, Oregon R embryo lysate
B2: dSNAP (Drosophila soluble NSF attachment protein), endogenous (natural protein, Drosophila (endogenous in S2 cells), UniProt Q23983 1-292, looked up)
chain: MGDNEQKALQLMAEAEKKLTQQKGFLGSLFGGSNKVEDAIECYQRAGNMFKMSKNWTKAGECFCEAATLHARAGSRHDAGTCYVDASNCYKKVDVESAVNCLMKSIDIYTDMGRFTMAAKHHQSIAEMYESDPNNLAKSIQHYEQAADYFKGEESVSSANKCMLKVAQYAAQLEDYEKAISIYEQVAASSLESSLLKYSAKEYFFRAALCHLSVDLLNAQHAIEKYAQQYPAFQDSREFKLIKVLCENLEEQNIEGFTEAVKDYDSISRLDQWYTTILLRIKKAADEDPDLR
notes: Drosophila SNAP (soluble NSF attachment protein), endogenous in Schneider S2 cells; also called Drosophila SNAP; source: endogenous, S2 cell lysate
B3: dsyntaxin 16, endogenous (natural protein, UniProt Q9VR90 1-352, looked up)
chain: MTSRNLTEVFVIMRNNASKNRNHYDDRRGSDAERLLKHSVREAEEGLELQDDYGTPPAWLDKFEEAQYTMSKIKPKLDELGSLHARHLLRPAFDDQRDDECDIEVLSQIVSKLITSTHRHIQCVRSSIGVGSKMEQCLTVNAVHCALLQLQELTVKFRASQNAYLLQLNSREERSQKYFDDGGGAGAGDVFTNVELGEQSAENFVDSFDNFLQPPAEGKSGNGYLFEDDEQAIDDHFQRPPASRMTQQQLLLFEEENTRVAQHREQEVTKIVKSIYDLNDIFKDLGHMVQEQGTVLDRIDYNVEQTQTRVSEGLRQLHKAEMYQRKNRKMCVILVLAAVTFFMLLLLILTKL
notes: Drosophila syntaxin 16, endogenous in S2 cells (pull-down) and in embryos (co-IP); also called dSyx16; dSyx 16; source: endogenous, S2 cell lysate; endogenous, Oregon R embryo lysate

Target: T1, GST-dSNAP-29 (Drosophila, UniProt Q9W1I8 1-284)
T1 construct: Drosophila SNAP-29 (CG11173, ubisnap/usnp), full-length cDNA amplified from EST clone LD17127 and subcloned into pGEX-KG; predicted mass 32 kDa; Vector pGEX-KG; also called GST-SNAP-29; Drosophila SNAP-29; source: coupled to glutathione beads
T1 sequence (looked up): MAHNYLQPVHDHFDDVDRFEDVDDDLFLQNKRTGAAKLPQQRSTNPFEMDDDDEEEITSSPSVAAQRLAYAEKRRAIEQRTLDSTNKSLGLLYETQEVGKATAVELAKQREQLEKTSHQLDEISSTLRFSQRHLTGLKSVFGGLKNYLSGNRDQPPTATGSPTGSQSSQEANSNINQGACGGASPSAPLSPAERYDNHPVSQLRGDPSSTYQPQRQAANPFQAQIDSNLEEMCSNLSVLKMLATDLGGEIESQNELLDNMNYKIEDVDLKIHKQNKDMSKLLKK
Test: pull-down; 0.5 mg GST fusion or GST on 120 uL glutathione beads, incubated with pre-cleared S2 cell lysate (PLC or NP40 lysis buffer, 0.1% gelatin, 0.1% BSA); washes 50 mM HEPES pH 7.5, 150 mM NaCl, 2 mM EDTA; western blot
Conditions: for percent recovered from the lysate: one partner purified

| Molecule | percent pulled down from the lysate | percent recovered from the lysate |
| --- | --- | --- |
| dEHD1, endogenous (natural protein) | 12% |  |
| DAP160, endogenous (natural protein) | 15% |  |
| B1 |  | 6% |
| B2 |  | ~7% |
| B3 |  | 4% |
